Here are results for 15 molecules from patent publication US8889392B2, “Monolignol 4-O-methyltransferases and uses thereof” (Brookhaven Science Associates, LLC, priority 2010, dated 2014).

Positions count from the first letter of the chain named. In names and notes the source's numbering stands. Several values for one entry are separate records, joined by “and”; a condition that tells them apart may be missing. Equal entries are not always repeated.

Broadly, the Km is the substrate concentration at which the rate is half of its maximum. For orientation: Vmax means the rate approached at saturating substrate.

To fix the notation:
T1: horseradish peroxidase (Armoracia rusticana, UniProt P00433)
T1 sequence (P00433 31-338 limits assumed): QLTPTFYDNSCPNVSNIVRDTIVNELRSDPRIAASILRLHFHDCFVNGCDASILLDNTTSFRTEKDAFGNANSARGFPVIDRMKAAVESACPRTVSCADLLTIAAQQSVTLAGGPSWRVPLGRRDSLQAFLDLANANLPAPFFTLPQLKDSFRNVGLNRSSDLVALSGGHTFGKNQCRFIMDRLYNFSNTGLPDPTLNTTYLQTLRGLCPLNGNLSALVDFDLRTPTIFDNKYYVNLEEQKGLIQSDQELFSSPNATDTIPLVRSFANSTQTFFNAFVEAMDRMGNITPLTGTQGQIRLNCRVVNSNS

B1: T133I-E165I-F175I: IEMT triple mutant, monolignol 4-O methyltransferase-3 (protein, listed as Clarkia breweri)
chain: MGSTGNAEIQIIPTHSSDEEANLFAMQLASAAVLPMALKAAIELDVLEIMAKSVPPSGYISPAEIAAQLPTTNPEAPVMLDRVLRLLASYSVVTYTLRELPSGKVERLYGLAPVCKFLTKNEDGVSLAPFLLIATDKVLLEPWFYLKDAILEGGIPFNKAYGMNIFDYHGTDHRINKVFNKGMSSNSTITMKKILEMYNGFEGLTTIVDVGGGTGAVASMIVAKYPSINAINFDLPHVIQDAPAFSGVEHLGGDMFDGVPKGDAIFIKWICHDWSDEHCLKLLKNCYAALPDHGKVIVAEYILPPSPDPSIATKVVIHTDALMLAYNPGGKERTEKEFQALAMASGFRGFKVASCAFNTYVMEFLKTA
B2: T133I-E165I-F175I-F166W-H169F: IEMT penta mutant (MOMT5) (protein)
chain: B1 chain with F166W, H169F
B3: T133I-E165I-F175I-F166W: IEMT tetra mutant derived from MOMT3 (protein)
chain: B1 chain with F166W
B4: T133I-E165I-F175I-Y161F: IEMT tetra mutant derived from MOMT3 (protein)
chain: B1 chain with Y161F
B5: T133I-E165I-F175I-F166W-T135N: IEMT penta mutant derived from MOMT3 (protein)
chain: B1 chain with T135N, F166W
B6: T133I-E165I-F175I-H169F: MOMT4 tetra mutant expressed in Arabidopsis (protein)
chain: B1 chain with H169F
B7: T133I-E165I-F175I-A325V: IEMT tetra mutant derived from MOMT3 (protein)
chain: B1 chain with A325V
B8: T133L-E165F: IEMT double mutant variant (protein)
chain: B1 chain with I133L, I165F, I175F
B9: T133I-E165I-F175I-H169M: IEMT tetra mutant derived from MOMT3 (protein)
chain: B1 chain with H169M
B10: T133I-E165I-F175I-F166W-H169W: IEMT penta mutant derived from MOMT3 (protein)
chain: B1 chain with F166W, H169W
B11: T133I-E165I-F175I-Y161W: IEMT tetra mutant derived from MOMT3 (protein)
chain: B1 chain with Y161W
B12: IEMT wt: C. breweri (iso)eugenol 4-O-methyltransferase, wild type (GenBank U86760.1, SEQ ID NO: 1) (protein, listed as Clarkia breweri)
chain: B1 chain with I133T, I165E, I175F
B13: T133I-E165I-F175I-Y326F-N327V: IEMT penta mutant derived from MOMT3 (protein)
chain: B1 chain with Y326F, N327V
B14: T133L/L139Q/E165F: IEMT triple mutant variant (protein, listed as Clarkia breweri)
chain: B1 chain with I133L, L139Q, I165F, I175F

Tested on in the first data set: not listed separately
In words: Kinetic parameters for 4-O-methylation of coniferyl alcohol. As to conditions: coniferyl alcohol. In kind it is biochemical. On the procedure: E. coli transformants were inoculated in 96 well plates. Protein production was induced with 0.2 mM isopropyl β-D-1-thiogalactopyranoside, and the harvested cell cultures were lysed with 60 μl of BugBuster solution per well (Novagen). Enzymatic activity was screened using the lysates directly or after purification of the recombinant protein in a 96 well purification plate.
Screening was performed in a polypropylene microplate (Bio-Rad) containing 50 μl of the reaction in each well, 500 μM p-coniferyl-alcohol substrates, and 500 μM S-adenosyl-L-methionine augmented with (isotopic assay) or without (LC-MS assay) 0.005 μCi of [methyl-^14C]S-adenosyl-L-methionine, and 20 μl of lysates or purified protein (Ni^+ column eluate). (see Bhuiya, M. W. and Liu, C. J. (2010) J. Biol. Chem. 285:277-285 and its supplemental material).
To further optimize the catalytic efficiency of MOMT on the desired para-methylation of monolignols, based on the crystal structure of MOMT3, we identified additional amino acid residues that either directly contact or are proximate to the bound coniferyl alcohol, particularly the residues near the 3-methoxy-buried pocket. They are F130, A134, V138, L139, F157, Y161, N164, F166, Y168, H169, H173, F179, M183, N186, T319, L322, M323, A325, Y326, and N327. We then carried out the next round saturation mutagenesis on the recognized amino acid sites using MOMT3 as the parental template. […] The MOMT4 enzyme predominantly reacted with coniferyl and sinapyl alcohols, with preference for the latter, while the MOMT5 favors for coniferyl alcohol.
Turning to B1, the catalytic efficiency amounted to 1245 M⁻¹ s⁻¹ and the “fold increase of catalytic efficiency compared with the wild-type enzyme” value (“fold increase of catalytic efficiency” for short) is “more than 70 fold”.
As to B2, the “fold increase of catalytic efficiency” value is ~200 fold.
On the same count and under the same terms, the figure for B3 is ~200 fold.

The data set is the same for the next values; noted with them: substrate coniferyl alcohol, 4-O-methylation.
With B1, the Km was 279 µM and 199 µM; the Vmax is 556 ± 35 nmol/mg/min and 371 ± 15 nmol/mg/min.
Consider B4, for which the Michaelis-Menten constant (Km) came to 197 ± 21 µM and the maximal velocity (Vmax) was 642 ± 24 nmol/mg/min.
Taken in the same sequence, the figures for B5 were 167 ± 11 µM and 431 ± 12 nmol/mg/min.
For B6, the Michaelis constant (Km) was determined as 193 ± 25 µM and the Vmax was 793 ± 32 nmol/mg/min.
The matching figures for B2: 80 ± 6 µM and 440 ± 10 nmol/mg/min.
Taken in the same sequence, the figures for B7 were 236 ± 50 µM and 446 ± 33 nmol/mg/min.
On to B8, for which the Michaelis-Menten constant (Km) was determined as 280 ± 18 µM and the Vmax is 117 ± 3 nmol/mg/min.
On to B9, for which the Km is 220 ± 27 µM and the maximal velocity (Vmax) is 629 ± 26 nmol/mg/min.
For B10, the Km worked out at 127 ± 8 µM and the maximal velocity (Vmax) turned out to be 392 ± 9 nmol/mg/min.
Take B11: the Km was 196 ± 34 µM and the maximum rate (Vmax) stood at 584 ± 37 nmol/mg/min.
Taken in the same sequence, the figures for B12 were 1590 ± 182 µM and 42 ± 4 nmol/mg/min.
Turning to B3, the Km came to 117 ± 15 µM and the Vmax was 496 ± 8 nmol/mg/min.
Taken in the same sequence, the figures for B13 were 196 ± 44 µM and 520 ± 25 nmol/mg/min.

Tested on in another data set: not listed separately
In words: Kinetic parameters for 4-O-methylation of sinapyl alcohol. It counts as biochemical. As to conditions: sinapyl alcohol.
Take B1: the catalytic efficiency was 1463 M⁻¹ s⁻¹ and the “fold increase of catalytic efficiency” value is “more than 70 fold”.
For B2, the “fold increase of catalytic efficiency” value is recorded as ~200 fold.
B3: the “fold increase of catalytic efficiency” value was ~200 fold.

The data set is the same for the next values; noted with them: substrate sinapyl alcohol, 4-O-methylation.
In the case of B1, the Michaelis constant (Km) is 120 µM and 119 µM; the Vmax was 275 ± 10 nmol/mg/min and 260 ± 6 nmol/mg/min.
B4: the Michaelis-Menten constant (Km) worked out at 206 ± 25 µM and the Vmax worked out at 289 ± 12 nmol/mg/min.
Consider B5, for which the Michaelis constant (Km) was 54 ± 14 µM and the Vmax was found to be 115 ± 9 nmol/mg/min.
For the molecule B6, the Km worked out at 68 ± 11 µM and the maximal velocity (Vmax) was determined as 408 ± 17 nmol/mg/min.
Taken in the same sequence, the figures for B2 were 37 ± 7 µM and 124 ± 7 nmol/mg/min.
With B7, the Michaelis-Menten constant (Km) came to 97 ± 7 µM and the maximal velocity (Vmax) came out at 214 ± 4 nmol/mg/min.
Taken in the same sequence, the figures for B8 were 382 ± 32 µM and 103 ± 4 nmol/mg/min.
Take B9: the Michaelis constant (Km) was 89 ± 10 µM and the maximum rate (Vmax) was 370 ± 11 nmol/mg/min.
Taken in the same sequence, the figures for B10 were 67 ± 10 µM and 160 ± 12 nmol/mg/min.
The matching figures for B11: 219 ± 19 µM and 259 ± 8 nmol/mg/min.
Taken in the same sequence, the figures for B12 were 1500 ± 214 µM and 45 ± 4 nmol/mg/min.
B3: the Michaelis constant (Km) worked out at 47 ± 8 µM and the Vmax amounted to 147 ± 4 nmol/mg/min.
In the case of B13, the Michaelis-Menten constant (Km) was 340 ± 30 µM and the Vmax stood at 429 ± 15 nmol/mg/min.

Tested on in the next data set: not listed separately
In words: Substrate specificity of mutant variants. It counts as biochemical. As to conditions: p-hydroxycinnamyl alcohols and p-hydroxycinnamaldehydes. The text has this: Kinetically, the mutant T133L/E165I/F175I equally preferred two major types of monolignols in angiosperms, i.e., coniferyl and sinapyl alcohols, whereas the T133L/L139Q/E165F variant favored coniferyl slightly over the sinapyl alcohol.
Turning to B1, the “activity for lignin monomeric precursors” value is reported as “high activities”.
As for B14, the “activity for lignin monomeric precursors” value is “high activities”.
Same read-out and setting: the entry for B12 is “barely measurable”.

The next data set concerns the target T1, horseradish peroxidase. The data set can be described thus: Peroxidase-catalyzed dehydrogenative polymerization in vitro. It counts as biochemical. As to conditions: incubation with horseradish peroxidase and H2O2. The text has this:
In vitro dehydrogenative polymerization is commonly used as a biomimetic model to explore in vivo lignin formation. Using the novel mutant variants, we produced methylated monolignol—the 4-O-methoxy-coniferyl alcohol, and subjected it to peroxidase-catalyzed dehydrogenative polymerization, compared to the classic p-coniferyl alcohol. […] The oligomer products include a predominant dimer, the β-5 inter subunit linkage, G(8-5)G, and a few minor peaks of the G(8-O-4)G and G(8-8)G dimers.
Regarding `COc1cc(/C=C/CO)ccc1O` [coniferyl alcohol, p-coniferyl alcohol], the conversion and oligomerization entry was “oxidized and conjugated, yielding several oligolignols”.
